{"source": "paper PMC10991250", "about": "“Efficient synthesis 1,4-cyclohexanedicarboxaldehyde by an engineered alcohol oxidase” (Bioresources and Bioprocessing, 2022)", "proteins": {"B1": {"name": "AcCO (Pseudarthrobacter chlorophenolicus A6) (protein)", "chain": "MHIDNIENLSDRGFDYVVIGGGSAGAAVAARLSEDPDVSVALVEAGPDDRNIPEILQLDRWMELLESGYDWDYPIEPQENGNSFMRHARAKVMGGCSSHNSCIAFWAPREDLDEWESKYGATGWNAANAWPLYKRLETNQDAGPDAPHHGDSGPVHLMNVPPADPSGVALLDACEEAGIPRARFNTGTTVVNGANFFQINRRGDGTRSSSSVSYIHPIIERDNFTLLTGLRARQLVFDADKRCTGVEVVDGAFGRTHRLTARHEVILSTGAIDSPKLLMLSGIGPAEHLAQHGIEVLVDSPGVGENLQDHPEGVVQFEAKQPMVQTSTQWWEIGIFTPTEDGLDRPDLMMHYGSVPFDMNTLRHGYPTTENGFSLTPNVTHARSRGTVRLRSRDFRDKPMVDPRYFTDPEGHDMRVMVAGIRKAREIAAQPAMSAWTGRELSPGVGAQTDEELQDYIRKTHNTVYHPVGTVRMGADDDGMSPLDARLRVKGVTGLRVADASVMPEHVTVNPNITVMMIGERCADLIKADYAGADALEEKELTTSFA", "notes": "codon-optimized synthetic gene in pET-28a(+) (BamHI/EcoRI), E. coli BL21(DE3), purified by AKTA; FAD-dependent"}, "B2": {"name": "AcCO (Pseudarthrobacter chlorophenolicus A6; H351V/N378S/S101A) (protein)", "chain": "B1 chain with S101A, H351V, N378S", "notes": "as for B1"}, "B3": {"name": "AcCO (Pseudarthrobacter chlorophenolicus A6; H351V/S101A) (protein)", "chain": "B1 chain with S101A, H351V", "notes": "as for B1"}, "B4": {"name": "AcCO (Pseudarthrobacter chlorophenolicus A6; H351V) (protein)", "chain": "B1 chain with H351V", "notes": "as for B1"}, "B5": {"name": "AcCO (Pseudarthrobacter chlorophenolicus A6; H351V/N378S/Q329N/S101A) (protein)", "chain": "B1 chain with S101A, Q329N, H351V, N378S", "notes": "as for B1"}, "B6": {"name": "AcCO (Pseudarthrobacter chlorophenolicus A6; S101A) (protein)", "chain": "B1 chain with S101A", "notes": "as for B1"}}, "note": "Residue numbers refer to the chain shown, from its start. Names may count otherwise."}
{"substrate": "O=CC1CCC(CO)CC1", "assay": "initial rate of CHDA formation by GC, Michaelis-Menten fit", "type": "biochemical, Pseudarthrobacter chlorophenolicus", "conditions": "1-100 mM HMCA, air-saturated O2, 100 mM potassium phosphate pH 8.0, 30 °C, 5% DMSO, 0.1 g/L catalase", "from_the_text": "initial rate of CHDA formation by GC, Michaelis-Menten fit on AcCO", "units": {"Km": "mM", "kcat": "s⁻¹", "kcat/Km": "M⁻¹ s⁻¹"}}
{"protein": "B1", "Km": "26.81 ± 0.19", "kcat": "0.000717 ± 0.000217", "kcat/Km": 0.0267}
{"protein": "B2", "Km": "6.81 ± 0.13", "kcat": "0.00883 ± 0.002", "kcat/Km": 1.3}
{"protein": "B3", "Km": "14.44 ± 0.46", "kcat": "0.00683 ± 0.000233", "kcat/Km": 0.473}
{"protein": "B4", "Km": "16.24 ± 0.11", "kcat": "0.004 ± 0.000367", "kcat/Km": 0.247}
{"protein": "B5", "Km": "5.24 ± 0.28", "kcat": "0.0157 ± 0.000717", "kcat/Km": 3}
{"protein": "B6", "Km": "20.42 ± 0.12", "kcat": "0.00233 ± 0.000367", "kcat/Km": 0.114}
{"substrate": "OCC1CCC(CO)CC1", "assay": "initial rate of HMCA formation by GC, Michaelis-Menten fit", "type": "biochemical, Pseudarthrobacter chlorophenolicus", "conditions": "1-100 mM CHDM, air-saturated O2, 100 mM potassium phosphate pH 8.0, 30 °C, 5% DMSO, 0.1 g/L catalase", "from_the_text": "initial rate of HMCA formation by GC, Michaelis-Menten fit on AcCO", "units": {"Km": "mM", "kcat": "s⁻¹", "kcat/Km": "M⁻¹ s⁻¹"}}
{"protein": "B1", "Km": "15.30 ± 0.14", "kcat": "0.00267 ± 0.000467", "kcat/Km": 0.167}
{"protein": "B2", "Km": "7.63 ± 0.72", "kcat": "0.0312 ± 0.002", "kcat/Km": 4}
{"protein": "B3", "Km": "10.21 ± 0.46", "kcat": "0.02183 ± 0.000183", "kcat/Km": 2.17}
{"protein": "B4", "Km": "13.36 ± 0.12", "kcat": "0.00683 ± 0.00045", "kcat/Km": 0.517}
{"protein": "B5", "Km": "1.12 ± 0.19", "kcat": "0.0367 ± 0.00717", "kcat/Km": 32.7}
{"protein": "B6", "Km": "13.45 ± 0.23", "kcat": "0.00617 ± 0.00107", "kcat/Km": 0.45}
